Results: patent US20220143024A1, “METHODS OF USING IMIPRIDONES” (Board of Regents, The University of Texas System, priority 2019, published 2022)

Columns and labels:
Assay in all cases: BioID-MS +ONC201
ACN9 (human) = ACN9 (human) (UniProt Q9NRP4)
MDH2 (human) = MDH2 (human) (UniProt P40926)
MRPS26 (human) = MRPS26 (human) (UniProt Q9BYN8)
RG9MTD1 (human) = RG9MTD1 (human) (UniProt Q7L0Y3)
NFUl (human) = NFUl (human) (UniProt Q9UMS0)
GTPBP10 (human) = GTPBP10 (human) (UniProt A4D1E9)
MMAB (human) = MMAB (human) (UniProt Q96EY8)
ATPAF1 (human) = ATPAF1 (human) (UniProt Q5TC12)
ATPAF1 (human), sequence (Q5TC12 58-328 limits assumed): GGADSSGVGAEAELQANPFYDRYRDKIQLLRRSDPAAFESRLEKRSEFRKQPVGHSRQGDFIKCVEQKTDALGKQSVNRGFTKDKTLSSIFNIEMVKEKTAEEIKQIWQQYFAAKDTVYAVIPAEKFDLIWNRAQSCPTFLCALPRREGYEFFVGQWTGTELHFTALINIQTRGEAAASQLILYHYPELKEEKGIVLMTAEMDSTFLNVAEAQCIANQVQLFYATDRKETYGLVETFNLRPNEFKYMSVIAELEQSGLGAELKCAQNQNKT

SUPV3L1 (human) = SUPV3L1 (human) (UniProt Q8IYB8)
SUPV3L1 (human), sequence (Q8IYB8 23-786 limits assumed): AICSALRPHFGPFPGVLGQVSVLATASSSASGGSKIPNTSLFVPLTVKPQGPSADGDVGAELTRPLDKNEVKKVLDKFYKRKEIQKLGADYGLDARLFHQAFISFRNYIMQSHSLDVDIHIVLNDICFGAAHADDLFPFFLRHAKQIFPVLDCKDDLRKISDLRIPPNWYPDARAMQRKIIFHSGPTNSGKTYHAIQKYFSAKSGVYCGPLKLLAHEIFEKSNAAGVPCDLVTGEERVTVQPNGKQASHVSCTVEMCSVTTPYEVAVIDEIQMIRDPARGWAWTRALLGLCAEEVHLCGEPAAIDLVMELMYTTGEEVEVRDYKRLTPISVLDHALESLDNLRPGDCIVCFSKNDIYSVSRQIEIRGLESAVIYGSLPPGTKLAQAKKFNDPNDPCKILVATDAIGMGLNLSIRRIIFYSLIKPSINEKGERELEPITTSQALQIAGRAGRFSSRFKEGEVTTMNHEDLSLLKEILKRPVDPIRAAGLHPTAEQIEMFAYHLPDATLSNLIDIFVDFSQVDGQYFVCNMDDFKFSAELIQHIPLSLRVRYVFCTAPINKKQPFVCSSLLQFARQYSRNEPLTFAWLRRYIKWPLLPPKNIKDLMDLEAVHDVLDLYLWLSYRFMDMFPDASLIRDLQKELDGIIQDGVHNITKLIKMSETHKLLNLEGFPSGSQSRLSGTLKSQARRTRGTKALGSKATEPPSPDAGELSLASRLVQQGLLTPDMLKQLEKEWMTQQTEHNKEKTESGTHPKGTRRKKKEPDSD

NDUFS7 (human) = NDUFS7 (human) (UniProt O75251)
PYCR1 (human) = PYCR1 (human) (UniProt P32322)
PYCR1 (human), sequence (P32322 2-319 limits assumed): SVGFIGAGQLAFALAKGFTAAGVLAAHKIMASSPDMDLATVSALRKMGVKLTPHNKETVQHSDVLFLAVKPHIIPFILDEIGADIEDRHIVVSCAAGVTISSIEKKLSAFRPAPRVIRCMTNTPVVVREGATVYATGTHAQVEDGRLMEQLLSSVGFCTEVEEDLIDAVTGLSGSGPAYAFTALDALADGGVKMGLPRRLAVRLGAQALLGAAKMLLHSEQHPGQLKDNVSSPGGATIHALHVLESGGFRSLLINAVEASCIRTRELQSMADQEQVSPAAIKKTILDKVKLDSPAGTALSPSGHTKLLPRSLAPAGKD

DHTKD1 (human) = DHTKD1 (human) (UniProt Q96HY7)
MRRF (human) = MRRF (human) (UniProt Q96E11)
ALDH2 (human) = ALDH2 (human) (UniProt P05091)
ALDH2 (human), sequence (P05091 18-517 limits assumed): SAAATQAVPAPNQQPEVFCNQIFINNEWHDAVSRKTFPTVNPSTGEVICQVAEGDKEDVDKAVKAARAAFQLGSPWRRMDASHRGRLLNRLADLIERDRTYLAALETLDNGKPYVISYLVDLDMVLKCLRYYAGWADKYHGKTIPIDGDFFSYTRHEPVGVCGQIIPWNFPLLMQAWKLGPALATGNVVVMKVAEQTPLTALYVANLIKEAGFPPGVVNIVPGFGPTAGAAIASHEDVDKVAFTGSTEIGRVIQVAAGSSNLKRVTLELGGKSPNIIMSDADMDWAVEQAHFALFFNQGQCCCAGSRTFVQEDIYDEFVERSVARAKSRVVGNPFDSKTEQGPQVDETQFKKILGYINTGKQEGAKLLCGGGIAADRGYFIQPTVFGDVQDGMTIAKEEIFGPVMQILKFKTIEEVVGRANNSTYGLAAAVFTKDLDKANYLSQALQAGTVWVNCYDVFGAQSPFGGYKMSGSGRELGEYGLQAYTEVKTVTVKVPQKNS

NUBPL (human) = NUBPL (human) (UniProt Q8TB37)
POLG2 (human) = POLG2 (human) (UniProt Q9UHN1)
ACSS1 (human) = ACSS1 (human) (UniProt Q9NUB1)
SDHA (human) = SDHA (human) (UniProt P31040)
AFG3L2 (human) = AFG3L2 (human) (UniProt Q9Y4W6)
ALDH4A1 (human) = ALDH4A1 (human) (UniProt P30038)
NDUFS4 (human) = NDUFS4 (human) (UniProt O43181)
NDUFS4 (human), sequence (O43181 43-175 limits assumed): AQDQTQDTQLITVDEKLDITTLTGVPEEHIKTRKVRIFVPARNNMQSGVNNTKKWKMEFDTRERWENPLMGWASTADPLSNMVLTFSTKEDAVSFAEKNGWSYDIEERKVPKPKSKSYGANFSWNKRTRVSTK

THEM4 (human) = THEM4 (human) (UniProt Q5T1C6)
THEM4 (human), sequence (Q5T1C6 37-240 limits assumed): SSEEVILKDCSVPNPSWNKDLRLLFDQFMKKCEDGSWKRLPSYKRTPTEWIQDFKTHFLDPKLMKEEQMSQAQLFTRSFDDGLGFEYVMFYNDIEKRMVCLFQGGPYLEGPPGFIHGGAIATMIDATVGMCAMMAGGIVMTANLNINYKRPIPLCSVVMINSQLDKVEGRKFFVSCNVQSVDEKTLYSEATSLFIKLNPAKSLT

TFAM (human) = TFAM (human) (UniProt Q00059)
TFAM (human), sequence (Q00059 43-246 limits assumed): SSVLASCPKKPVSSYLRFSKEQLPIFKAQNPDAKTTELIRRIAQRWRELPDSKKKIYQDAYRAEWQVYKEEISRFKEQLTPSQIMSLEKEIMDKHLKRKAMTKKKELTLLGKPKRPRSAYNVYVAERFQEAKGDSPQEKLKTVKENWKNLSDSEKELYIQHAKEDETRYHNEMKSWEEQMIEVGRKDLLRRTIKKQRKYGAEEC

MTPAP (human) = MTPAP (human) (UniProt Q9NVV4)
MRPL47 (human) = MRPL47 (human) (UniProt Q9HD33)
MRPL46 (human) = MRPL46 (human) (UniProt Q9H2W6)
HINT2 (human) = HINT2 (human) (UniProt Q9BX68)
HINT2 (human), sequence (Q9BX68 18-163 limits assumed): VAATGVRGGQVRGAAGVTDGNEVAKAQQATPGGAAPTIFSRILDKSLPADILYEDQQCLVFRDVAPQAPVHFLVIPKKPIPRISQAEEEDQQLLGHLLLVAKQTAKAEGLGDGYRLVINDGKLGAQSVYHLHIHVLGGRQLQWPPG

SLC27A2 (human) = SLC27A2 (human) (UniProt O14975)
LYRM4 (human) = LYRM4 (human) (UniProt Q9HD34)
ABCB7 (human) = ABCB7 (human) (UniProt O75027)
THNSL1 (human) = THNSL1 (human) (UniProt Q8IYQ7)
GLRX5 (human) = GLRX5 (human) (UniProt Q86SX6)
AARS2 (human) = AARS2 (human) (UniProt Q5JTZ9)
AARS2 (human), sequence (Q5JTZ9 24-985 limits assumed): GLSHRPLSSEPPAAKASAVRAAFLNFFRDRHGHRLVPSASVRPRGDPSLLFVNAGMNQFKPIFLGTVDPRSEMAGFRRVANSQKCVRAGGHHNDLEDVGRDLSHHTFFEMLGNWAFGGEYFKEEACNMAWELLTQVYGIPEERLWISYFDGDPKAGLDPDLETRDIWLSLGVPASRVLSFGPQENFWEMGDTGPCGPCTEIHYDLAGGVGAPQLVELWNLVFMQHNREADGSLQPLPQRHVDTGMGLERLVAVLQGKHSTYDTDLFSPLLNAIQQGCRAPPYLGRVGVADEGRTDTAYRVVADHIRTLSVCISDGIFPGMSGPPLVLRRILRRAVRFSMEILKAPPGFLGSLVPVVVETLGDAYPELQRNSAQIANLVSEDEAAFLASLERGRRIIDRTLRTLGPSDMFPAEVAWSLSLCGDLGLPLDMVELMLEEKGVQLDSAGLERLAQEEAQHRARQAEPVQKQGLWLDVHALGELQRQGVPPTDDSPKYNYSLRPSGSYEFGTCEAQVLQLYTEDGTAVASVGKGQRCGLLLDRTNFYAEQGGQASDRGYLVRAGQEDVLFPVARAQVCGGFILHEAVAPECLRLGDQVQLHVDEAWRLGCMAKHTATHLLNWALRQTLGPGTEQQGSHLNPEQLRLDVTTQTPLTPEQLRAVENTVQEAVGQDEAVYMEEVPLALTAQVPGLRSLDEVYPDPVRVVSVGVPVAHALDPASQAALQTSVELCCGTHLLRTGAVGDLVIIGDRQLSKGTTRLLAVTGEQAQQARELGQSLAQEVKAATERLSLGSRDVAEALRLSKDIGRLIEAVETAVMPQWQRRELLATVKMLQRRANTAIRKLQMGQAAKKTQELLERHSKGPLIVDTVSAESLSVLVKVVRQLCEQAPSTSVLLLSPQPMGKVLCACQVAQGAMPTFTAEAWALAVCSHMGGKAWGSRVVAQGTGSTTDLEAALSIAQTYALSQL

HSD17B10 (human) = HSD17B10 (human) (UniProt Q99714)
HSD17B10 (human), sequence (Q99714 2-261 limits assumed): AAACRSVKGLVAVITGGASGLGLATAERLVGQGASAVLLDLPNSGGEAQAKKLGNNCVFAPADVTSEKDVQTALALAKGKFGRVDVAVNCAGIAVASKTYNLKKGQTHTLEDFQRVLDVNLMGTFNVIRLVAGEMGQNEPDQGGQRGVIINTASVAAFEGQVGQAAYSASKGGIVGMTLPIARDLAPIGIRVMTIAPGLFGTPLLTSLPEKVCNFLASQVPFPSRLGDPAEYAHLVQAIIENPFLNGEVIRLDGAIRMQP

FOXRED1 (human) = FOXRED1 (human) (UniProt Q96CU9)
MICU2 (human) = MICU2 (human) (UniProt Q8IYU8)
MICU2 (human), sequence (Q8IYU8 23-434 limits assumed): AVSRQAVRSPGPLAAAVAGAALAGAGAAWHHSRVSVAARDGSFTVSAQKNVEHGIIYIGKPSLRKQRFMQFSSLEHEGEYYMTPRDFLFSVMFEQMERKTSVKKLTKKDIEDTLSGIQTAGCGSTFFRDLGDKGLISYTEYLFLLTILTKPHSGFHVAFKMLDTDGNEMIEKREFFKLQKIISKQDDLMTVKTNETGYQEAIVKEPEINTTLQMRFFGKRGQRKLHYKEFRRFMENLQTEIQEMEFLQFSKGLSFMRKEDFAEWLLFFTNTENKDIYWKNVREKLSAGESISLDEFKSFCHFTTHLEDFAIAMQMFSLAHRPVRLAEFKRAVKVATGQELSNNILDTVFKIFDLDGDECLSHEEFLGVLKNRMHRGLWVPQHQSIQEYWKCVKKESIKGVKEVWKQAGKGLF

CHCHD3 (human) = CHCHD3 (human) (UniProt Q9NX63)
SDHAF3 (human) = SDHAF3 (human) (UniProt Q9NRP4)
DHRS4 (human) = DHRS4 (human) (UniProt Q9BTZ2)
NDUFA12 (human) = NDUFA12 (human) (UniProt Q9UI09)
AIFM1 (human) = AIFM1 (human) (UniProt O95831)
IDH3A (human) = IDH3A (human) (UniProt P50213)
C20orf7 (human) = C20orf7 (human) (UniProt Q5TEU4)
NADK2 (human) = NADK2 (human) (UniProt Q4G0N4)
NADK2 (human), sequence (Q4G0N4 63-442 limits assumed): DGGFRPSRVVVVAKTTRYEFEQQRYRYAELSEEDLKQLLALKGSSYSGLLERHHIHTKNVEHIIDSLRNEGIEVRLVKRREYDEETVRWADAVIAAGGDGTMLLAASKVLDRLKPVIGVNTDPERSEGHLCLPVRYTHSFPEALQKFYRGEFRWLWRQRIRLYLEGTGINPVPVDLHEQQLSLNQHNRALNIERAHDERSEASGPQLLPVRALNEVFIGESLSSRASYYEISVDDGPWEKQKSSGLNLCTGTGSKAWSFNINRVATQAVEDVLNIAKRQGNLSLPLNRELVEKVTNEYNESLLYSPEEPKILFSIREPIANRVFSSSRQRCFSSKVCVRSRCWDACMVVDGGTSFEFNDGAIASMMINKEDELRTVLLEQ

MRPS24 (human) = MRPS24 (human) (UniProt Q96EL2)
NUDT19 (human) = NUDT19 (human) (UniProt A8MXV4)
SUCLA2 (human) = SUCLA2 (human) (UniProt Q9P2R7)
MRPL45 (human) = MRPL45 (human) (UniProt Q9BRJ2)
MRPS7 (human) = MRPS7 (human) (UniProt Q9Y2R9)
MGME1 (human) = MGME1 (human) (UniProt Q9BQP7)
SHMT2 (human) = SHMT2 (human) (UniProt P34897)

RG9MTD1 (human), sequence (Q7L0Y3 40-403 limits assumed): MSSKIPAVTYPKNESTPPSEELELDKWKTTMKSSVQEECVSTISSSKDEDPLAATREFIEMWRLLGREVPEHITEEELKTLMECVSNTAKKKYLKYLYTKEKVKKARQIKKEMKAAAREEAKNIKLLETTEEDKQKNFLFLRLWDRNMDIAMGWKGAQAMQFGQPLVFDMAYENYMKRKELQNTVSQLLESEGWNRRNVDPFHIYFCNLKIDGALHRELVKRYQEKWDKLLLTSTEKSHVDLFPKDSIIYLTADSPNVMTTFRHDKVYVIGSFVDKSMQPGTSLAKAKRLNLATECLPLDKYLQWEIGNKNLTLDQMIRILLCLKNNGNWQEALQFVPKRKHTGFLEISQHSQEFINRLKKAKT

Which results are given for “FlagBirA-ClpP (WT) (from UniProt P06709 1-321; Q16740 57-277) (enzyme)”?
Log2 Fold change (vs control) (ACN9 (human)): -5.46 log2; Log2 Fold change (vs control) (MDH2 (human)): -0.24 log2; Log2 Fold change (vs control) (MRPS26 (human)): -6.38 log2; Log2 Fold change (vs control) (RG9MTD1 (human)): -1.3 log2; Log2 Fold change (vs control) (NFUl (human)): -4.32 log2; Log2 Fold change (vs control) (GTPBP10 (human)): -4.91 log2; Log2 Fold change (vs control) (MMAB (human)): -0.37 log2; Log2 Fold change (vs control) (ATPAF1 (human)): -2.17 log2; Log2 Fold change (vs control) (SUPV3L1 (human)): -0.12 log2; Log2 Fold change (vs control) (NDUFS7 (human)): -1.81 log2; Log2 Fold change (vs control) (PYCR1 (human)): -2.16 log2; Log2 Fold change (vs control) (DHTKD1 (human)): -5.25 log2; Log2 Fold change (vs control) (MRRF (human)): -5.49 log2; Log2 Fold change (vs control) (ALDH2 (human)): -0.17 log2; Log2 Fold change (vs control) (NUBPL (human)): -4.17 log2; Log2 Fold change (vs control) (POLG2 (human)): -5.29 log2; Log2 Fold change (vs control) (ACSS1 (human)): -4.46 log2; Log2 Fold change (vs control) (SDHA (human)): -0.94 log2; Log2 Fold change (vs control) (AFG3L2 (human)): -0.14 log2; Log2 Fold change (vs control) (ALDH4A1 (human)): -2.21 log2; Log2 Fold change (vs control) (NDUFS4 (human)): -5.93 log2; Log2 Fold change (vs control) (THEM4 (human)): -0.88 log2; Log2 Fold change (vs control) (TFAM (human)): -1.61 log2; Log2 Fold change (vs control) (MTPAP (human)): -0.1 log2; Log2 Fold change (vs control) (MRPL47 (human)): -4.52 log2; Log2 Fold change (vs control) (MRPL46 (human)): -6.09 log2; Log2 Fold change (vs control) (HINT2 (human)): -1.17 log2; Log2 Fold change (vs control) (SLC27A2 (human)): -1.81 log2; Log2 Fold change (vs control) (LYRM4 (human)): 0 log2; Log2 Fold change (vs control) (ABCB7 (human)): -0.45 log2; Log2 Fold change (vs control) (THNSL1 (human)): -1.55 log2; Log2 Fold change (vs control) (GLRX5 (human)): -5.21 log2; Log2 Fold change (vs control) (AARS2 (human)): -5.73 log2; Log2 Fold change (vs control) (HSD17B10 (human)): 0.01 log2; Log2 Fold change (vs control) (FOXRED1 (human)): -4.09 log2; Log2 Fold change (vs control) (MICU2 (human)): -4.31 log2; Log2 Fold change (vs control) (CHCHD3 (human)): -3.46 log2; Log2 Fold change (vs control) (SDHAF3 (human)): -3.82 log2; Log2 Fold change (vs control) (DHRS4 (human)): -2.32 log2; Log2 Fold change (vs control) (NDUFA12 (human)): -7.55 log2; Log2 Fold change (vs control) (AIFM1 (human)): -1.58 log2; Log2 Fold change (vs control) (IDH3A (human)): -2 log2; Log2 Fold change (vs control) (C20orf7 (human)): -1.21 log2; Log2 Fold change (vs control) (NADK2 (human)): -4.24 log2; Log2 Fold change (vs control) (MRPS24 (human)): -4.81 log2; Log2 Fold change (vs control) (NUDT19 (human)): -3.1 log2; Log2 Fold change (vs control) (SUCLA2 (human)): -0.71 log2; Log2 Fold change (vs control) (MRPL45 (human)): -6.44 log2; Log2 Fold change (vs control) (MRPS7 (human)): -2.77 log2; Log2 Fold change (vs control) (MGME1 (human)): 0.27 log2; Log2 Fold change (vs control) (SHMT2 (human)): -0.51 log2
